Source: IntAct's records for PubMed 20723757

B1: Monopolin complex subunit CSM1 (Saccharomyces cerevisiae), P25651 (parent)
chain: MDPLTVYKNSVKQQIDSADLLVANLVNENFVLSEKLDTKATEIKQLQKQIDSLNAQVKELKTQTSQQAENSEVIKDLYEYLCNVRVHKSYEDDSGLWFDISQGTHSGGSSDDYSIMDYKLGFVKGQAQVTEVIYAPVLKQRSTEELYSLQSKLPEYLFETLSFPLSSLNQFYNKIAKSLNKKREKKDETE
partner: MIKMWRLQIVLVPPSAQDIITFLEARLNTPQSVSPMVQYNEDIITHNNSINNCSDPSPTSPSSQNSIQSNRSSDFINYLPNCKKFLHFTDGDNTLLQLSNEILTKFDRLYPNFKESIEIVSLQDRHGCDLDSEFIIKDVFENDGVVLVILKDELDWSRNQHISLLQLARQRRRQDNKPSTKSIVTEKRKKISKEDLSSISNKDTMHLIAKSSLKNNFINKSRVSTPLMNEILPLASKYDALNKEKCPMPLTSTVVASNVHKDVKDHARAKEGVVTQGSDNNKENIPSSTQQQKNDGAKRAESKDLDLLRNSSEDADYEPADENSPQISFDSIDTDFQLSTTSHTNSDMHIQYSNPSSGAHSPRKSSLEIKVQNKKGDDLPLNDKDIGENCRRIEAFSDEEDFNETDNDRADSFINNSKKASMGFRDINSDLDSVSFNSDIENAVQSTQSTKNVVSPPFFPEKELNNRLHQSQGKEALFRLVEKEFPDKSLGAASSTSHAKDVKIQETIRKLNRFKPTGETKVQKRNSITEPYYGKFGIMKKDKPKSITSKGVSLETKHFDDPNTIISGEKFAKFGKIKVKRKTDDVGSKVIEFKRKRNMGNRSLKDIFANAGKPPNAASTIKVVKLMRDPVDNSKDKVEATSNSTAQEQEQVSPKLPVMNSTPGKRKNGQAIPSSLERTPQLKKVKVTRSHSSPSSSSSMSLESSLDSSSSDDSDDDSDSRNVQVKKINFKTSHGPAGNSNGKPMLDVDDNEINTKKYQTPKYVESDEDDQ
B2: Monopolin complex subunit pcs1 (Schizosaccharomyces pombe (strain ATCC 38366 / 972)), O13684 (parent)
chain: MRKNNMQTSKDSELKEQAKGKSSKLIHKLPKQRTRISQGQMHSTQDFVNNEDQDAYSVRENENELHINNSGMSELNKKLQLPNVELSTLSHTQEQEFNELNKLIRKINELQEFYLLEDLAKPVTNAGADADDTIVKDLKKELENEKKANHSLKNELLKTREQIKNYSKINILIKELFGLEVADCIEDEDGYRFNCKNTGRRGTLEYQLLLDDQNFTFTPRLNVQTDEELMKHLPDYLLEEIIFTKEQGKLFSARLMKALQD
partner: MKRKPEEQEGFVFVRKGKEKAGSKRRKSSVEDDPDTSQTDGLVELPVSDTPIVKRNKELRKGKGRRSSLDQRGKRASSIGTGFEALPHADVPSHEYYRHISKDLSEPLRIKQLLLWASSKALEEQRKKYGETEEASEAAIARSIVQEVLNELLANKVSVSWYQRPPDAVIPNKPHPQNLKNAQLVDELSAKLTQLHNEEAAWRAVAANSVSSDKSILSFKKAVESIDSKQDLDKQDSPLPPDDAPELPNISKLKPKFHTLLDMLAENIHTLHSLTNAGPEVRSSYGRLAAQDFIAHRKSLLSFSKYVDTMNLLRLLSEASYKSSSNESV
B3: Monopolin complex subunit CSM1 (Saccharomyces cerevisiae), P25651 (parent)
chain: B1 chain
partner: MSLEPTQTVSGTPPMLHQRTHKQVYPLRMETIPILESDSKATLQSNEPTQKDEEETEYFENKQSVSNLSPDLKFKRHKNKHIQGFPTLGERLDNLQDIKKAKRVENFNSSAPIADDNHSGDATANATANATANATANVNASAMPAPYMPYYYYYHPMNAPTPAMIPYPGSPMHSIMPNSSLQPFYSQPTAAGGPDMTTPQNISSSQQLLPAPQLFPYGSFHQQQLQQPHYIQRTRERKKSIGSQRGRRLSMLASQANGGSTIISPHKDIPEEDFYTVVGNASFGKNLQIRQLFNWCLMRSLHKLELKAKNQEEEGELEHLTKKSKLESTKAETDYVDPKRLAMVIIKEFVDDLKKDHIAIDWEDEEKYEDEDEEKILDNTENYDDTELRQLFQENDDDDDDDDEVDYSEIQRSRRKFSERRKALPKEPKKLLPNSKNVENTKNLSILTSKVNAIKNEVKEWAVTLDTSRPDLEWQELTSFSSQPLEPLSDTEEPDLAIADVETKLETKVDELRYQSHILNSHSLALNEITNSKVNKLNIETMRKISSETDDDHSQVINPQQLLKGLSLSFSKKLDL
B4: Monopolin complex subunit CSM1 (Saccharomyces cerevisiae), P25651 (parent)
chain: B1 chain
B5: Monopolin complex subunit pcs1 (Schizosaccharomyces pombe (strain ATCC 38366 / 972)), O13684 (parent)
chain: B2 chain
partner: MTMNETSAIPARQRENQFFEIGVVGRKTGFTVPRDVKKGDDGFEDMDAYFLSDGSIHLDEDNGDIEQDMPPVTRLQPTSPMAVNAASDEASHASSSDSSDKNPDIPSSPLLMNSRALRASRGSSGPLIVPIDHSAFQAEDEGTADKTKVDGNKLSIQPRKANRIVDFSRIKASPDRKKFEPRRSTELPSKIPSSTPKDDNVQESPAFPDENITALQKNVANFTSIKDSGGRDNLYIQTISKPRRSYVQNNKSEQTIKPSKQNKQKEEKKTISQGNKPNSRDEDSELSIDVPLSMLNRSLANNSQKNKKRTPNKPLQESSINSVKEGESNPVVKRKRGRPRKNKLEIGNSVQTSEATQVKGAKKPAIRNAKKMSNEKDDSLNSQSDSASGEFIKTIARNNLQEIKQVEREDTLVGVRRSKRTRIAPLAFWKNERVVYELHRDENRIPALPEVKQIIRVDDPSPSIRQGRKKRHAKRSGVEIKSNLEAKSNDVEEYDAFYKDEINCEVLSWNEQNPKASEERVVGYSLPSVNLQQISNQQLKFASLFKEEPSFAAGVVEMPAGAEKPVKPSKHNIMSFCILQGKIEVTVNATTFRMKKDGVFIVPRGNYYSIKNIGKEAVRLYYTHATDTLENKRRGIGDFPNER

Variants of: B1
Settings: with tof2_yeast TOF2, Q02208

Q: For L161D, which “effect of a mutation on the interaction” value is on record?
A: Its value is “decreasing interaction”.

Q: Which “effect of a mutation on the interaction” value does the source give for L161K here?
A: Its value is “decreasing interaction”.

Q: For Y156E, which “effect of a mutation on the interaction” value is on record?
A: The value was “decreasing interaction”.

Q: How did the “effect of a mutation on the interaction” value turn out when Y156A was run?
A: Its value is “decreasing interaction”.

Q: Which “effect of a mutation on the interaction” value does the source give for K174E here?
A: The value was “decreasing interaction”.

Variants of: B2
Settings: with mis13_schpo mis13, Q9UUB5

Q: Which “effect of a mutation on the interaction” value does the source give for I241D here?
A: The value was “decreasing interaction”.

Q: For I241A, which “effect of a mutation on the interaction” value is on record?
A: The value was “decreasing interaction”.

Q: For I241K, which “effect of a mutation on the interaction” value is on record?
A: Its value is “decreasing interaction”.

Q: Y236K was tested. Which “effect of a mutation on the interaction” value did it give?
A: The value was “decreasing interaction”.

Q: Which “effect of a mutation on the interaction” value does the source give for Y236A here?
A: The value was “decreasing interaction”.

Q: For Y236E, which “effect of a mutation on the interaction” value is on record?
A: The value was “decreasing interaction”.

Variants of: B3
Settings: with dsn1_yeast DSN1, P40568

Q: For Y156E, which “effect of a mutation on the interaction” value is on record?
A: Its value is “decreasing interaction”.

Q: L161K was tested. Which “effect of a mutation on the interaction” value did it give?
A: Its value is “decreasing interaction”.

Q: Which “effect of a mutation on the interaction” value does the source give for L161D here?
A: Its value is “decreasing interaction”.

Variants of: B4
Settings: with cenpc_yeast MIF2, P35201
Chain of cenpc_yeast MIF2, P35201 (P35201 whole entry): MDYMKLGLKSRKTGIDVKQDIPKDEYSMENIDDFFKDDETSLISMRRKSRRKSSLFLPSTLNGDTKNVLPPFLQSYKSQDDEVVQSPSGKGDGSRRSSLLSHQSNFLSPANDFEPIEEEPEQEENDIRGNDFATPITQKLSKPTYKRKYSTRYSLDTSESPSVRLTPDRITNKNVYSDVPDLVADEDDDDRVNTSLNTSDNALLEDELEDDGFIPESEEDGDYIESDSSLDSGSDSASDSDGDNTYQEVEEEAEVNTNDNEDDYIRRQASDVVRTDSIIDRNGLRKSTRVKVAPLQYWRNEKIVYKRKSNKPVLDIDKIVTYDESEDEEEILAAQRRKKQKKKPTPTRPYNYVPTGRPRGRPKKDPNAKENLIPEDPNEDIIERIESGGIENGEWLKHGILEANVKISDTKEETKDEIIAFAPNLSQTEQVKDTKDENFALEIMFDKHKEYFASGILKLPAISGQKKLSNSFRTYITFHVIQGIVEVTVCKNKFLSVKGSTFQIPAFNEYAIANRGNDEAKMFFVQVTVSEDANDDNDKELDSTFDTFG

Q: L161K was tested. Which “effect of a mutation on the interaction” value did it give?
A: Its value is “decreasing interaction”.

Q: With L161D as the variant, how does the “effect of a mutation on the interaction” value read?
A: The value was “decreasing interaction”.

Q: Y156E was tested. Which “effect of a mutation on the interaction” value did it give?
A: The value was “decreasing interaction”.

Variants of: B5
Settings: with cenpc_schpo cnp3, Q9USR9

Q: With I241A as the variant, how does the “effect of a mutation on the interaction” value read?
A: Its value is “decreasing interaction”.

Q: Which “effect of a mutation on the interaction” value does the source give for Y236A here?
A: Its value is “decreasing interaction”.
